Test results published in patent publication US20220204643A1 (published 2022).
Substitutions are numbered along the chain they refer to. Where two headings read alike, the source gives them in different places.

What was measured:
[1] = molecular target: T1, aarF domain containing kinase 5 (human, UniProt Q3MIX3 1-580); test: protein array
T1 construct: on protein array; also called ADCK5

[2] = molecular target: T2, Jupiter microtubule associated homolog 2 (human, UniProt Q9H910 1-190)
T2 construct: also called HN1L
T2 sequence: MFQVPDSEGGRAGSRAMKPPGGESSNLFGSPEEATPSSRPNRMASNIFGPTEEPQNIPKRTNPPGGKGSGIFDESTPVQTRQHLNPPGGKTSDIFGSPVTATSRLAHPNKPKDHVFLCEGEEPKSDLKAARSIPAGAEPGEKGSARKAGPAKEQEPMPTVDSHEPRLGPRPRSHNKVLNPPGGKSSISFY

[3] = molecular target: T3, quinoid dihydropteridine reductase, transcript variant 1 (human, UniProt P09417 2-244); test: protein array
T3 construct: on protein array; also called QDPR
T3 sequence: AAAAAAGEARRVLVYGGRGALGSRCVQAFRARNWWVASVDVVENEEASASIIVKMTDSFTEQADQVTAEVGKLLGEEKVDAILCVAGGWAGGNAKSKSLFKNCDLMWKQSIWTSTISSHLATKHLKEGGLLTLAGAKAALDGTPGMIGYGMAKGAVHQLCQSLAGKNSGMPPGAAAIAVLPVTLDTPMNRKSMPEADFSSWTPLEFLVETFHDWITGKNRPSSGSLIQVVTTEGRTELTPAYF

[4] = molecular target: T4, quinoid dihydropteridine reductase, transcript variant 1 (human, UniProt P09417 2-244)
T4 construct: HuProt array protein, full-length recombinant from yeast; also called QDPR
T4 sequence: T3 sequence

[5] = molecular target: T5, ubiquilin 1, transcript variant 2 (human, UniProt Q9UMX0 2-589)
T5 construct: HuProt array protein, full-length recombinant from yeast; also called UBQLN1
T5 sequence (Q9UMX0 other isoform, or with tags, fused parts or gaps mutant limits assumed): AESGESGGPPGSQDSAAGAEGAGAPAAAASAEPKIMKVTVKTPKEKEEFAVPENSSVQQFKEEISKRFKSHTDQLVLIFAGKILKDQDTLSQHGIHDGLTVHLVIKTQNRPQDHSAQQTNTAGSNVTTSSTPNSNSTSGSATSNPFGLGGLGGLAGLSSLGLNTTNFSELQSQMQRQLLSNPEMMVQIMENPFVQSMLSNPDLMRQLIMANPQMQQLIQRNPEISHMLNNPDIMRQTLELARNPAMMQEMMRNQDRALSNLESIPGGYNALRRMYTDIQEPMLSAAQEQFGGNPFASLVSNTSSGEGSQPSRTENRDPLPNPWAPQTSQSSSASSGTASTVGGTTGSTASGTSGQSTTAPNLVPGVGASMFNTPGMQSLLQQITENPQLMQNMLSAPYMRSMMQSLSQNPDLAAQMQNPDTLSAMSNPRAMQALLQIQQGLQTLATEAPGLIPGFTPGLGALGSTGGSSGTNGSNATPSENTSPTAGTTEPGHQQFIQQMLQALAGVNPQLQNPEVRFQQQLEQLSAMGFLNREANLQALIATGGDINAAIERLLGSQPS

[6] = molecular target: T6, ubiquilin 1, transcript variant 2 (human, UniProt Q9UMX0 2-589); test: protein array
T6 construct: on protein array; also called UBQLN1
T6 sequence (Q9UMX0 other isoform, or with tags, fused parts or gaps mutant limits assumed): as above

[7] = molecular target: T7, kelch like ECH associated protein 1, transcript variant 1 (human, UniProt Q14145 1-624); test: protein array
T7 construct: on protein array; also called KEAP1
T7 sequence (Q14145 whole entry, change not shown): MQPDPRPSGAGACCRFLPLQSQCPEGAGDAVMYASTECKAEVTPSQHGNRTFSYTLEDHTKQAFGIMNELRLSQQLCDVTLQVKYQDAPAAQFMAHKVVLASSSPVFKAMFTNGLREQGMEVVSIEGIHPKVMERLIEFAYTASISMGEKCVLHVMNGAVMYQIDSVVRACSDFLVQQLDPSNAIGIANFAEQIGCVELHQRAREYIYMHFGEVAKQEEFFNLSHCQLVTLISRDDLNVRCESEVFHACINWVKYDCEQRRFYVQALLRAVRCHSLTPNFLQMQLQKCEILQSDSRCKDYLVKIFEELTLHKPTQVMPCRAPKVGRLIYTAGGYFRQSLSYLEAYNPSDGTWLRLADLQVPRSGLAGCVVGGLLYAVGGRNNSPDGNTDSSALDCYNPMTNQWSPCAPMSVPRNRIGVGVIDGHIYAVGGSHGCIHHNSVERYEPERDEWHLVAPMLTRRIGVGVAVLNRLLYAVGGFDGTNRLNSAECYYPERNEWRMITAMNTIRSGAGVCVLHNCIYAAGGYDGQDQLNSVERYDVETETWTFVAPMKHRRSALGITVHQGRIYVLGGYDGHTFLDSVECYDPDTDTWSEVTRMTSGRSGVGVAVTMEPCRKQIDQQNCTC

[8] = molecular target: T8, cancer/testis antigen 1A (human, UniProt P78358 1-180); test: protein array
T8 construct: on protein array; also called CTAG1A
T8 sequence (P78358 whole entry): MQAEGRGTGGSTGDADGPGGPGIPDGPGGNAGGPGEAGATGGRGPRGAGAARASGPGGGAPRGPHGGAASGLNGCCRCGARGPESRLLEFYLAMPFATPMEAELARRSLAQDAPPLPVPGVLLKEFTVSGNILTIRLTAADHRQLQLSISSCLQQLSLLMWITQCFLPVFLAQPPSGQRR

[9] = molecular target: T9, DIX domain containing 1, transcript variant 2 (human, UniProt Q155Q3 220-683); test: protein array
T9 construct: on protein array; also called DIXDC1
T9 sequence: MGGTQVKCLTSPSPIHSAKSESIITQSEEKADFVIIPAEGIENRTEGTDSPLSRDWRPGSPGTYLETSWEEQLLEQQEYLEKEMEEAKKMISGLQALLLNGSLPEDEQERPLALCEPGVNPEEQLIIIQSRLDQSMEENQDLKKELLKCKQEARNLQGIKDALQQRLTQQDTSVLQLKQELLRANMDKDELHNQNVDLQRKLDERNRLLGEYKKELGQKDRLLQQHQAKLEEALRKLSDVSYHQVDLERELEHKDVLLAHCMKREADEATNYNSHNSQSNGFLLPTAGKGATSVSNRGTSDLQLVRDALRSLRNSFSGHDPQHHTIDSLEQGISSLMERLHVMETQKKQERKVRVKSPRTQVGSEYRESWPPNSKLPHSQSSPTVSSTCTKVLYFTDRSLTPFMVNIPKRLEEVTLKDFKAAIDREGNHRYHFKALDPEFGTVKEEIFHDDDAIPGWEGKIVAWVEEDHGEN

[10] = molecular target: T10, influenza virus NS1A binding protein (human, UniProt Q9Y6Y0 1-642); test: protein array
T10 construct: on protein array; also called IVNS1ABP
T10 sequence: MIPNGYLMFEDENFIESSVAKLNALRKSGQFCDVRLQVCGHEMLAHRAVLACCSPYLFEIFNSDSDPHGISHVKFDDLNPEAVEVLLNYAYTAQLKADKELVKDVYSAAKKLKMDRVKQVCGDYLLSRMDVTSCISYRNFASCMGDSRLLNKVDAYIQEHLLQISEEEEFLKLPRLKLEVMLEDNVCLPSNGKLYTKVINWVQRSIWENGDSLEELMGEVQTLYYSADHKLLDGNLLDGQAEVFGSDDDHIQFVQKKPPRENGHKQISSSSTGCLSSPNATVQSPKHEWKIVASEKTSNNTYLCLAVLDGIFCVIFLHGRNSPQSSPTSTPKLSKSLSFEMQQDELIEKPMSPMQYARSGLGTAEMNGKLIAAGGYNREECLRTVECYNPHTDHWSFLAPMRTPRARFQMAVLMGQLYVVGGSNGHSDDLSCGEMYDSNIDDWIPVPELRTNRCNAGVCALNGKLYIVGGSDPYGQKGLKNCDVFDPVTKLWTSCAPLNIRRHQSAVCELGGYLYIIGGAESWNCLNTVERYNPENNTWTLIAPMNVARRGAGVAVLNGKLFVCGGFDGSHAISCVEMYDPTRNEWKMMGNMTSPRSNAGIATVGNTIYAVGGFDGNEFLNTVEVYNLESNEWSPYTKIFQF

T1 sequence (Q3MIX3 other isoform, or with tags, fused parts or gaps limits assumed): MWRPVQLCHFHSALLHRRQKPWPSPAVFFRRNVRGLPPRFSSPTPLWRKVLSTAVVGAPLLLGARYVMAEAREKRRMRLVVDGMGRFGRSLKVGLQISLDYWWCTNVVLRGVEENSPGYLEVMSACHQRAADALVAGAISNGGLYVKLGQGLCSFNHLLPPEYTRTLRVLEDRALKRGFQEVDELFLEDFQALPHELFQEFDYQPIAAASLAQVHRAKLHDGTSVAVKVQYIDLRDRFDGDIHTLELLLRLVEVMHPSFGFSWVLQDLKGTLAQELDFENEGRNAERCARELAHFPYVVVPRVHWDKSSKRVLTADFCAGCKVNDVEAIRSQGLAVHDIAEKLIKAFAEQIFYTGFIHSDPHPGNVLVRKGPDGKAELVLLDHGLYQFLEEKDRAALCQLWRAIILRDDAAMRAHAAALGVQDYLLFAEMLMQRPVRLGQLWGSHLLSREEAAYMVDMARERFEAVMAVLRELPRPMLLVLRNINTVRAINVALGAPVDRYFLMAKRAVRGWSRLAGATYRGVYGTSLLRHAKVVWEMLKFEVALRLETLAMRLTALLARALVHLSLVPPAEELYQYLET

B1: TTES1009 (antibody, V domains shown)
VH: EVQLVESGGGLVQPGGSLRLSCAASGFTFSSYEMNWVRQAPGKGLEWVSYISSSGSTIYYADSVKGRFTISRDNAKNSLYLQMNSLRAEDTAVYYCARRGFYYYYGMDVWGQGTTVTVSS
VL: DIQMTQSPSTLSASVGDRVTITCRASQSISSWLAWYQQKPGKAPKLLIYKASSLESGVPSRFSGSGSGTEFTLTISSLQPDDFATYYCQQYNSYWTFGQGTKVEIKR
notes: VH/VL tied via antigen in summary, not by name in this stretch
binding result [1]: binds

B2: TOVA1008 (antibody, V domains shown)
VH: ELQLVESGGGLVQPGGSLRLSCAASGFTFSSYWMSWVRQAPGKGLEWVANINQDGGEKYYVDSVKGRFTISRDNAKNSLYLQMNSLRAEDTAVYYCAHYYYDSSGYYQNAEYFQYWGQGTLVTVSS
VL: DIQMTQSPPSLSASVGDRVTITCQASQDISNYLNWYQQKPGKTPKLLIYAASTLETGVPSRFSGSGSGTDFTFTINSLQPEDIATYYCQQYDSLPLTFGGGTKVEIKR
binding result [2]: binds

B3: TMEL1034 (antibody, V domains shown)
VH: QLQLQESGPGLVKPWETLSLSCTVSGGSISSSFFYWGWIRQPPGKGLQWIGNIHYTGSTYYNPSLKSRITMSVDTSKNQFSLKLSSVTAADTAVYYCARHRVGDSPGLHYWGQGTLVTVSS
VL: SYELTQPPSVSVSPGQTARITCSGDALPKKYAFWYQQKSGQAPVLVIYEDSKRPSGIPERFSGSSSGTMATLTISGAQVEDESDYYCYSTDSSGNVWVFGGGTKLTVLG
notes: as for B1
binding result [3]: binds

B4: TMEL1034 (antibody, V domains shown)
VH: B3 VH
VL: B3 VL
notes: detected with anti-human IgG Fc
binding result [4]: binds

B5: TBRE1030 (antibody, V domains shown)
VH: QVQLQESGPGLVKPSQTLSLTCTVSGGSISSGGYYWSWIRQHPGKGLEWIGYIYYSGSTYYNPSLKSRVTISVDTSKNQFSLKLSSVTAADTAVYYCARDLSCSSTSCHDAFDIWGQGTMVTVSS
VL: not shown
notes: as for B4
binding result [5]: binds

B6: TBRE1030 (antibody, V domains shown)
VH: B5 VH
VL: not shown
notes: VH/VL only
binding result [6]: binds

B7: TCOL1007 (antibody, V domains shown)
VH: PVQLVESGGGVVQPGRSLRLSCAASGFTFSNYGMHWVRQAPGKGLEWVAVISDDGNDKDNADSVKGRFTISRDNSKNTLYLRMNSLRREDTAVYYCARDGFDYWGQGTLVTVSS
VL: DIVMTQTPLSMPVTPGEPASISCRSSQSLLDSDDGKTYLDWYLQKPGQSPQLLIYTVSYRASGVPDRFSGSGSGTDFTLKISRVEAEDVGVYYCMQRIEFPFTFGPGTKVDIKR
notes: VH/VL only
binding result [7]: binds

B8: TLUS1001 (antibody, V domains shown)
VH: QVQLQESGPGLVKPSETLSLTCTVSGDSISSNYWSWIRQPPGKGLEWIGYIYYSGSTNYNPSLKSRVTISVDTSKNQFSVKLSSVTAADTAVYYCARYGDYSFDPWGQGTLVTVSS
VL: not shown
notes: as for B1
binding result [3]: binds

B9: TLUS1001 (antibody, V domains shown)
VH: B8 VH
VL: not shown
notes: as for B4
binding result [4]: binds

B10: TTES1011 (antibody, V domains shown)
VH: PVTLRESGPALVKPTQTLTLTCTFSGFSLSTSGMCVSWIRQPPGKALEWLARIDWDDDKYYSTSLKTRLTISKDTSKNQVVLTMTNMDPVDTATYYCARMQIVATTQTYYYYYGMDVWGQGTTVTVSS
VL: PAVLTQPPSVSGAPGQRVTISCTGSSSNIGAGYDVHWYQQLPGTAPKLLIYGNSNRPSGVPDRFSGSKSGTSASLAITGLQAEDEADYYCQSYDSSLSGSGVFGGGTKLTVLG
binding result [2]: binds

B11: TKIC1002 (antibody, V domains shown)
VH: PVQLQESGPGLVKPSETLSLTCTVSGGSISSYYWSWIRQPPGKGLEWIGYLFYSGSTNYNPSLKSRVTISVDTSKNQFSLKLGSVTAADTAVYYCARHRIFGLDVWGQGTTVTVSS
VL: EIVLTQSPGTLSLSLGERATLSCRASQSVSGSHLAWYQQKPGQAPRLLIYDASSRATGIPDRFSGSGSGTEFTLTISRLEPEDFAVYYCQQYGSSPLWFGQGTKVEIK
notes: VH/VL only
binding result [1]: binds

B12: TTHY1004 (antibody, V domains shown)
VH: PVQLQESGPGLVKPSQTLSLTCTVSGGSISSGTYYWSWIRQPAGKGLEWIGRIYASGSTNYNPSLKSRVTISVDTSKNQFSLKLTSVTAADTAVYYCARYSGSYPLGFDYWGQGTLVTVSS
VL: DIQMTQSPSSLSASVGDRVTITCRASQSISTYLNWYQQKPGMAPKLLIYAASTLQSGVPSRFSGSGSATDYTLTISSLQPEDFATYYCQQSYNTPLTFGGGTKVDIKR
notes: as for B1
binding result [8]: binds

B13: TBLA1012 (antibody, V domains shown)
VH: LLQLVESGGGVVQPGRSLRLSCAASGFTFTRHGFHWVRQAPGKGLEWVAVISSDGRKIHYTDSVKGRFVISRDDSDNTVYLHMNSLRLGDTALYYCARDSGGTPGPYWGQGTLVTVSS
VL: DVVMTQSPLSLPVTLGQPASISCRSSQSLVHSDGNTYLNWFQQRPGQSPRRLIYMVSNRDSGVPDRFSGSGSGTDFTLKISRVEAEDVGVYYCLQGTHWPPTIGQGTKVEIE
notes: VH/VL only
binding result [8]: binds

B14: TTES1010 (antibody, V domains shown)
VH: EVQLVESGGGLVQPGGSLRLSCAASGFTFSSYSMNWVRQAPGKGLEWVSYISSSSSTIYYADSVKGRFTISRDNAKNSLYLQMNSLRAEDTAVYYCASLLGGDPDYWGQGTLVTVSS
VL: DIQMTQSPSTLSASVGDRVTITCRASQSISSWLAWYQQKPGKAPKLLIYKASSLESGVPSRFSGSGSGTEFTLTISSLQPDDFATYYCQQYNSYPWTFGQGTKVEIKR
notes: as for B1
binding result [9]: binds

B15: TTES1001 (antibody, V domains shown)
VH: PVQLVQSGAEVKKPGSSVQVSCKGSGGTFSEYGISWLRQAPGQGLEWIGGIIPVLGIPNYAQKFRGRVTITADESTGSAYMEVSSLRSEDTAVYYCAREGLRLARGWFHPWGQGTLVTVTS
VL: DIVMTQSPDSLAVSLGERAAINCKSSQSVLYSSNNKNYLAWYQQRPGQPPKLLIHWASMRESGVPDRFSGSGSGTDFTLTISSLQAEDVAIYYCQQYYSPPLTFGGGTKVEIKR
notes: as for B1
binding result [9]: binds

B16: TCER1004 (antibody, V domains shown)
VH: VVQLVESGGGLVQPGGSLRLSCAASGFTFSSYSMNWVRQAPGKGLEWLSYVSSSGSTMYYADSVKGRFTISRDTAKNSLFLQMNSLRAEDTAVYYCAKGGPLRPFDIWGQGTLVTVSS
VL: VIQMTQSPTSLSASVGDRVTITCRASQSISSYLNWYQQKLGKAPKLLIYAASSLQSGVPSRFSGSGSGTDFTLTISSLQPEDFATYYCQQSYSTSLTFGGGTKVEIKR
notes: VH/VL only
binding result [10]: binds

B17: THNS1008 (antibody, V domains shown)
VH: QVQLQESGPGLVKPSQTLSLTCAVSGGSISSGGYPWSWIRQPPGKGLEWIGYISYSGSTDYNPSLKSRVTISLDTSSNQFSLNLSSLTAADTAVYYCARGAAFYYGMDVWGQGTTVTVSS
VL: B16 VL with V1D, T9S, S31T, L40P, A50V, S77G, S95P, L96Y, G100Q, V104L
notes: VH/VL only
binding result [7]: binds
